Reference: US20060083734A1, “Composition and method for repairing nerve damage and enhancing functional recovery of nerve” (priority 2004, published 2006)

What was measured:
Assay type in all cases: in vivo, rat
MCA occluded rats [1] = experiment: Accelerating rotarod test after FCI injury; details: topical GDNF 1 μg
Method: (§1) Animals: The example conforms to the Guide for the Care and Use of Laboratory Animals, published by the US National Institutes of Health (NIH publication NO. 85-23, revised 1996). Male Long-Evans rats (National Lab. Animal Breeding and Research Center) weighing 300-350 g were used in this study. These animals were housed in a room with controlled temperature (24±1° C.) and humidity (55±5%) under a 12:12 h light-dark cycle. They were allowed free access to food and water.
(§2) Surgical procedure: The technique was a modification of the method of Huang et al (Huang S S, Tsai S K, Chih C L, Chiang L Y, Hsieh H M, Teng C M, Tsai M C. Neuroprotective effect of hexasulfobutylated C60 on rats subjected to focal cerebral ischemia. Free Radic Biol Med. 2001;30:643-649). […]
The accelerating rotarod was used to assess motor deficit following ischemic injury in rats (Hamm R J, Pike B R, O'Dell D M, Lyeth B G, Jenkins L W. The rotarod test: an evaluation of its effectiveness in assessing motor deficits following traumatic brain injury. J Neurotrauma. 1994; 11:187-196). The rats were placed on rungs of the accelerating rotarod and the time the animals remained on the rotarod was measured. […] The time in seconds at which each animal fell off the rungs was recorded. […]
(§3) Statistics. Data are expressed as mean±standard error of mean (S.E.M.). […]

MCA occluded rats [2] = experiment: Grasping power test after FCI injury; details: topical GDNF 1 μg
Method: as §1, §2
The grasping power test was a modification of the method of Bertelli et al (Bertelli J A, Mira J C. The grasping test: a simple behavioral method for objective quantitative assessment of peripheral nerve regeneration in the rat. J Neurosci Methods. 1995;59:151-155). […] Rats were allowed to grasp the bar while being lifted by the tail with increasing firmness until they loosened their grip and the grasping power was scored.
as §3

MCA occluded rats [3] = experiment: Infarct volume analysis by TTC staining after MCA occlusion and reperfusion; details: Long-Evans rats, 1 hr MCA occlusion, end of 4th week after FCI injury, topical GDNF 1 μg, mean±SEM, n=6
Method: as §1
Surgical procedure: The technique was a modification of the method of Huang et al (Huang S S, Tsai S K, Chih C L, Chiang L Y, Hsieh H M, Teng C M, Tsai M C. Neuroprotective effect of hexasulfobutylated C60 on rats subjected to focal cerebral ischemia. Free Radic Biol Med. 2001;30:643-649). In brief, each male Long-Evans rat was anesthetized by inhalation of a nitrous oxide/oxygen/halothane (69%:30%:1%) mixture during surgical preparation. Body temperature was maintained during surgery at 37±0.5° C. with a heating pad servo-controlled by a rectal probe. […] Measurements were performed before, during and right after unilateral MCA occlusion.
Focal ischemic infarcts were produced in the right lateral cerebral cortex in the territory of the MCA. Both common carotid arteries were exposed by midline anterior cervical incision. […]

[4] = end of 1st week after FCI injury
[5] = end of 4th week after FCI injury

B1: Glial cell line-derived neurotrophic factor (protein, UniProt P39905 78-211, looked up)
Glial cell line-derived …: SPDKQMAVLPRRERNRQAAAANPENSRGKGRRGQRGKNRGCVLTAIHLNVTDLGLGYETKEELIFRYCSGSCDAAETTYDKILKNLSRNRRLVSDKVGQACCRPIAFDDDLSFLDDNLVYHILRKHSAKRCGCI
notes: GDNF (1 μg) dissolved in HBSS solution, topically applied
mean latency to stay on the rotarod, of baseline (MCA occluded rats [1]; [4]): 50.3%
mean latency to stay on the rotarod, of baseline (MCA occluded rats [1]; [5]): 67.3%
mean value of grasping power, of baseline (MCA occluded rats [2]; [4]): 71.7%
mean value of grasping power, of baseline (MCA occluded rats [2]; [5]): 97.6%
infarct volume (MCA occluded rats [3]): 108.0±12.1 mm^3
